In the supplement of paper PMC10567573:

B1: KCNG1 (parent)
chain: LFVTVTAVNLSVSTLPSLREEEEQ
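Note: lentivirally expressed fusions sorted by FACS into six bins by GFP to DsRed ratio, PSI derived from sequencing read proportions per bin multiplied by bin number.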

Variants of: B1
Assay: protein stability index of a GFP-peptide fusion (GPS, HEK-293T) (PSI 1-6); higher = more stable
Details: c terminus: a fixed tail appended
Work on LFVTVTAVNLSVSTPPSLREEEEQ [L15P] yielded a protein stability index of 2.48. LFVTVTAVNLSVSTDPSLREEEEQ [L15D] showed a protein stability index of 3.09. For LFVTVTAVNLSVSTMPSLREEEEQ [L15M], the protein stability index was 2.51. LFVTVTAVNLSVSTGPSLREEEEQ [L15G] gave a protein stability index of 1.72. For LFVTVTAVNLSVSTTPSLREEEEQ [L15T], the protein stability index was 3.77. Variant LFVTVTAVNLSVSTIPSLREEEEQ [L15I] has a protein stability index of 1.36. Variant LFVTVTAVNLSVSTKPSLREEEEQ [L15K] has a protein stability index of 1.62. LFVTVTAVNLSVSTQPSLREEEEQ [L15Q] showed a protein stability index of 1.05. LFVTVTAVNLSVSTCPSLREEEEQ [L15C] showed a protein stability index of 2.81. Work on LFVTVTAVNLSVSTVPSLREEEEQ [L15V] yielded a protein stability index of 1.76. For LFVTVTAVNLSVSTLPSIREEEEQ [L18I], the protein stability index was 1.62. For LFVTVTAVNLSVSTLPSTREEEEQ [L18T], the protein stability index was 3.48. In the case of LFVTVTAVNLSVSTLPSHREEEEQ [L18H], the protein stability index is reported as 2.87. For LFVTVTAVNLSVSTLPSAREEEEQ [L18A], the protein stability index was 3.29. LFVTVTAVNLSVSTLPSSREEEEQ [L18S] showed a protein stability index of 3.17. LFVTVTAVNLSVSTLPSDREEEEQ [L18D] showed a protein stability index of 2.05. Work on LFVTVTAVNLSVSTLPSPREEEEQ [L18P] yielded a protein stability index of 2.48. With LFVTVTAVNLSVSTLPSMREEEEQ [L18M] the protein stability index was 3.35. For LFVTVTAVNLSVSTLPSNREEEEQ [L18N], the protein stability index was 2.47. Work on LFVTVTAVNLSVSTLPSRREEEEQ [L18R] yielded a protein stability index of 1.57. Variant LFVTVTAVNLSVSTLPSQREEEEQ [L18Q] has a protein stability index of 2.23. LFVTVRAVNLSVSTLPSLREEEEQ [T6R] showed a protein stability index of 1.64. Variant LFVTVDAVNLSVSTLPSLREEEEQ [T6D] has a protein stability index of 3.21. LFVTVPAVNLSVSTLPSLREEEEQ [T6P] gave a protein stability index of 3.96. LFVTVAAVNLSVSTLPSLREEEEQ [T6A] showed a protein stability index of 1.69. For LFVTVGAVNLSVSTLPSLREEEEQ [T6G], the protein stability index was 1.3. In the case of LFVTVEAVNLSVSTLPSLREEEEQ [T6E], the protein stability index is reported as 1.79. In the case of LFVTVSAVNLSVSTLPSLREEEEQ [T6S], the protein stability index is reported as 2.27. With LFVTVHAVNLSVSTLPSLREEEEQ [T6H] the protein stability index was 1.85. LFVTVLAVNLSVSTLPSLREEEEQ [T6L] gave a protein stability index of 1.25. In the case of LFVTVNAVNLSVSTLPSLREEEEQ [T6N], the protein stability index is reported as 2.29. Variant LFVMVTAVNLSVSTLPSLREEEEQ [T4M] has a protein stability index of 3.06. LFVSVTAVNLSVSTLPSLREEEEQ [T4S] gave a protein stability index of 1.49. Work on LFVGVTAVNLSVSTLPSLREEEEQ [T4G] yielded a protein stability index of 2.89. Variant LFVYVTAVNLSVSTLPSLREEEEQ [T4Y] has a protein stability index of 3.61. LFVEVTAVNLSVSTLPSLREEEEQ [T4E] gave a protein stability index of 1.75. Variant LFVHVTAVNLSVSTLPSLREEEEQ [T4H] has a protein stability index of 1.93. For LFVAVTAVNLSVSTLPSLREEEEQ [T4A], the protein stability index was 1.37. With LFVQVTAVNLSVSTLPSLREEEEQ [T4Q] the protein stability index was 2.71. Variant LFVKVTAVNLSVSTLPSLREEEEQ [T4K] has a protein stability index of 1.64. With LFVLVTAVNLSVSTLPSLREEEEQ [T4L] the protein stability index was 1.08. With LFVPVTAVNLSVSTLPSLREEEEQ [T4P] the protein stability index was 3.13. With LFVNVTAVNLSVSTLPSLREEEEQ [T4N] the protein stability index was 2.45. Work on LFVDVTAVNLSVSTLPSLREEEEQ [T4D] yielded a protein stability index of 3.23. LFVTVTAVNLEVSTLPSLREEEEQ [S11E] showed a protein stability index of 1.72. LFVTVTAVNLPVSTLPSLREEEEQ [S11P] gave a protein stability index of 2.02. LFVTVTAVNLMVSTLPSLREEEEQ [S11M] gave a protein stability index of 3.64. LFVTVTAVNLRVSTLPSLREEEEQ [S11R] showed a protein stability index of 2.63. In the case of LFVTVTAVNLGVSTLPSLREEEEQ [S11G], the protein stability index is reported as 1.73. Work on LFVTVTAVNLHVSTLPSLREEEEQ [S11H] yielded a protein stability index of 1.72. Variant LFVTVTAVNLYVSTLPSLREEEEQ [S11Y] has a protein stability index of 4.29. With LFVTVTAVNLSVSDLPSLREEEEQ [T14D] the protein stability index was 1.52. Work on LFVTVTAVNLSVSSLPSLREEEEQ [T14S] yielded a protein stability index of 1.36. Variant LFVTVTAVNLSVSHLPSLREEEEQ [T14H] has a protein stability index of 2.56. In the case of LFVTVTAVNLSVSYLPSLREEEEQ [T14Y], the protein stability index is reported as 2.34. LFVTVTAVNLSVSVLPSLREEEEQ [T14V] gave a protein stability index of 2.13. Variant LFVTVTAVNLSVSWLPSLREEEEQ [T14W] has a protein stability index of 2.87. For LFVTVTAVNLSVSELPSLREEEEQ [T14E], the protein stability index was 1.99. In the case of LFVTVTAVNLSVSPLPSLREEEEQ [T14P], the protein stability index is reported as 2.61. With LFVTVTAVNLSVSKLPSLREEEEQ [T14K] the protein stability index was 1.77. LFVTVTAVNLSVSRLPSLREEEEQ [T14R] gave a protein stability index of 4.33. Work on LFVTVTAVNLSVSMLPSLREEEEQ [T14M] yielded a protein stability index of 2.01. LFVTVTAVPLSVSTLPSLREEEEQ [N9P] showed a protein stability index of 1.73. Variant LFVTVTAVDLSVSTLPSLREEEEQ [N9D] has a protein stability index of 1.45. For LFVTVTAVTLSVSTLPSLREEEEQ [N9T], the protein stability index was 3.74. Work on LFVTVTAVYLSVSTLPSLREEEEQ [N9Y] yielded a protein stability index of 2.02. LFVTVTAVQLSVSTLPSLREEEEQ [N9Q] gave a protein stability index of 2.65. Work on LFVTVTAVHLSVSTLPSLREEEEQ [N9H] yielded a protein stability index of 3.18. For LFVTVTAVNLSVSTLNSLREEEEQ [P16N], the protein stability index was 3.87. In the case of LFVTVTAVNLSVSTLCSLREEEEQ [P16C], the protein stability index is reported as 1.65. For LFVTVTAVNLSVSTLRSLREEEEQ [P16R], the protein stability index was 1.75. For LFVTVTAVNLSVSTLDSLREEEEQ [P16D], the protein stability index was 1.19. With LFVTVTAVNLSVSTLSSLREEEEQ [P16S] the protein stability index was 2.05. LFVTVTAVNLSVSTLKSLREEEEQ [P16K] gave a protein stability index of 2.5. In the case of LFVTVTAVNLSVSTLMSLREEEEQ [P16M], the protein stability index is reported as 3.14. Variant LFVTVTAVNLSVYTLPSLREEEEQ [S13Y] has a protein stability index of 3.08. Work on LFVTVTAVNLSVFTLPSLREEEEQ [S13F] yielded a protein stability index of 1.52. LFVTVTAVNLSVITLPSLREEEEQ [S13I] showed a protein stability index of 2.89. LFVTVTAVNLSVHTLPSLREEEEQ [S13H] gave a protein stability index of 1.29. Work on LFVTVTAVNLSVQTLPSLREEEEQ [S13Q] yielded a protein stability index of 1.78. With LFVTVTAVNLSVDTLPSLREEEEQ [S13D] the protein stability index was 1.55. Work on LFVTVTAVNLSVLTLPSLREEEEQ [S13L] yielded a protein stability index of 2.71. With LFVTVTAVNYSVSTLPSLREEEEQ [L10Y] the protein stability index was 1.95. For LFVTVTAVNISVSTLPSLREEEEQ [L10I], the protein stability index was 3.17. LFVTVTAVNKSVSTLPSLREEEEQ [L10K] showed a protein stability index of 2.47. Variant LFVTVTAVNTSVSTLPSLREEEEQ [L10T] has a protein stability index of 2.03. LFVTVTAVNSSVSTLPSLREEEEQ [L10S] gave a protein stability index of 2.21. In the case of LFVTVTAVNWSVSTLPSLREEEEQ [L10W], the protein stability index is reported as 2.88. LFVTVTAVNCSVSTLPSLREEEEQ [L10C] gave a protein stability index of 1.45. Work on LFVTVTAVNQSVSTLPSLREEEEQ [L10Q] yielded a protein stability index of 3.77. Variant LFVTVTAVNGSVSTLPSLREEEEQ [L10G] has a protein stability index of 2.16. Work on LFVTVTAVNVSVSTLPSLREEEEQ [L10V] yielded a protein stability index of 1.9. LFVTVTAVNPSVSTLPSLREEEEQ [L10P] gave a protein stability index of 2.32. LFVTVTAVNRSVSTLPSLREEEEQ [L10R] showed a protein stability index of 3.45.
